Experimental data taken from article PMC2935283, “Molecular recognition between Escherichia coli enolase and ribonuclease E” (Acta Crystallographica Section D: Biological Crystallography, 2010).

Molecular target: the molecule itself
Test: native MS; enolase mixed with the microdomain in a 1:1.5 molar ratio, room temperature, 20 min; nanoflow ESI, tandem nondissociating QTOF-MS/MS

B1: Escherichia coli enolase (enzyme, E. coli)
chain: MSKIVKIIGREIIDSRGNPTVEAEVHLEGGFVGMAAAPSGASTGSREALELRDGDKSRFLGKGVTKAVAAVNGPIAQALIGKDAKDQAGIDKIMIDLDGTENKSKFGANAILAVSLANAKAAAAAKGMPLYEHIAELNGTPGKYSMPVPMMNIINGGEHADNNVDIQEFMIQPVGAKTVKEAIRMGSEVFHHLAKVLKAKGMNTAVGDEGGYAPNLGSNAEALAVIAEAVKAAGYELGKDITLAMDCAASEFYKDGKYVLAGEGNKAFTSEEFTHFLEELTKQYPIVSIEDGLDESDWDGFAYQTKVLGDKIQLVGDDLFVTNTKILKEGIEKGIANSILIKFNQIGSLTETLAAIKMAKDAGYTAVISHRSGETEDATIADLAVGTAAGQIKTGSMSRSDRVAKYNQLIRIEEALGEKAPYNGRKEIKGQA
notes: enolase (EC 4.2.1.11), E. coli; overexpressed from pET11a; Purified as described in Kuhnel & Luisi, 2001; Homodimer in the crystal and by nondissociating mass spectrometry; also called enolase dimer; dimeric enolase; source: E. coli BL21 (DE3), pET11a vector, purified
  stoichiometry N: 2
